The results in this text go back to article PMC12499436, “Human Schlafen 14 Cleavage of Short Double‐Stranded RNAs Underpins its Antiviral Activity” (Advanced Science, 2025).

Numbering of substitutions follows the chain as printed. Numbers in names are those of the source.

One series concerns the target T1, SLFN14mut (Homo sapiens, UniProt P0C7P3 1-912, E211A;C365S;C775S;C808S).
T1 sequence: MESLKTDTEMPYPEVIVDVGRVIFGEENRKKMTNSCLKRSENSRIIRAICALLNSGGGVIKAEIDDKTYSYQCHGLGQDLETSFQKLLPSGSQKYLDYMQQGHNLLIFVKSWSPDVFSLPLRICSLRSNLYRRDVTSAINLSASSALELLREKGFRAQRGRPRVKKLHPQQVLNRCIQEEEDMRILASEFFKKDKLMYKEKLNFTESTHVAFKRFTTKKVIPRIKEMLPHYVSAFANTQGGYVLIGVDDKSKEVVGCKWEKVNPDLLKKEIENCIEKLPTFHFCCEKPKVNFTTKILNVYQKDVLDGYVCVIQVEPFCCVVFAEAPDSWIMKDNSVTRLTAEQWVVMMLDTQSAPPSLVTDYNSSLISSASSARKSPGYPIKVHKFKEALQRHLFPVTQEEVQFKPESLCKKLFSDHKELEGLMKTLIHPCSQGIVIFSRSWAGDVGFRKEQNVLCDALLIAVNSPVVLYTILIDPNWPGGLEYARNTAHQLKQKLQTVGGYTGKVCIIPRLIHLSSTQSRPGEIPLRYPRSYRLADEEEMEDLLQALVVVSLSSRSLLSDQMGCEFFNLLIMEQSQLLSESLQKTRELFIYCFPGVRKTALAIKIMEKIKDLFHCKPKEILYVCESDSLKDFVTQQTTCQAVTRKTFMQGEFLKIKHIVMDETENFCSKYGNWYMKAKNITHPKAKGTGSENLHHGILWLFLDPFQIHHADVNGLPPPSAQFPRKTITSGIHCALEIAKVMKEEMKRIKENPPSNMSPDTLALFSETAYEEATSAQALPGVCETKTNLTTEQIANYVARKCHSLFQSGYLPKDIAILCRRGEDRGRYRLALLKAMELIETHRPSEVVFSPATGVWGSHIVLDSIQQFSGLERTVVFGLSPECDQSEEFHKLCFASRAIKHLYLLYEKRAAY
Briefly: cryo-EM structure; 2.88 A; Zn2+ (2 per dimer); no active-site ion density; BLI: PBS, 0.02% P20, 0.1% BSA, 25 C; EMSA: 25 mM HEPES pH 7.5, 50 mM NaCl, 8% glycerol, 2 mM MgCl2, 1 mM DTT, 4 C, 50 nM ssDNA; cryo-EM: RNA in 40 mM Tris-HCl pH 8.0, 20 mM KCl, 4 mM MgCl2, 2 mM DTT, protein:RNA 1:1.2, 4 C overnight. As to conditions: protein: recombinant; tags: 6xHis-SUMO (N-term); chain copies: 2; hairpin, 12-bp stem, 7-nt loop. On the technique in general: A gel shift assay detects complexes by their altered migration in electrophoresis.

Series [1] deals with the molecule itself. Briefly: SEC; recombinant strep-strep-SUMO tagged SLFN14 in solution with 150 mM NaCl; gel-filtration standards. A general note: SEC sorts molecules by how far they enter the pores of the column.
Series [2] concerns the molecule itself. Briefly: cryo-EM structure; apo SLFN14^mut, single-particle analysis, 2.84 Å.
A further series deals with T2, SLFN14 (WT) (Homo sapiens, UniProt P0C7P3 1-912).
T2 sequence: T1 sequence with A211E, S365C, S775C, S808C
Briefly: BLI; steady state; kdis 1.3e-3 /s; BLI: PBS, 0.02% P20, 0.1% BSA, 25 C; EMSA: 25 mM HEPES pH 7.5, 50 mM NaCl, 8% glycerol, 2 mM MgCl2, 1 mM DTT, 4 C, 50 nM ssDNA; cryo-EM: RNA in 40 mM Tris-HCl pH 8.0, 20 mM KCl, 4 mM MgCl2, 2 mM DTT, protein:RNA 1:1.2, 4 C overnight. As to conditions: protein: recombinant; tags: Strep-Strep-SUMO (N-term); chain copies: 2. (Biolayer interferometry detects binding as a change in optical thickness at a sensor tip.)

The target in a further series is T3, SLFN11 (WT) (Homo sapiens, UniProt Q7Z7L1 1-901).
T3 sequence: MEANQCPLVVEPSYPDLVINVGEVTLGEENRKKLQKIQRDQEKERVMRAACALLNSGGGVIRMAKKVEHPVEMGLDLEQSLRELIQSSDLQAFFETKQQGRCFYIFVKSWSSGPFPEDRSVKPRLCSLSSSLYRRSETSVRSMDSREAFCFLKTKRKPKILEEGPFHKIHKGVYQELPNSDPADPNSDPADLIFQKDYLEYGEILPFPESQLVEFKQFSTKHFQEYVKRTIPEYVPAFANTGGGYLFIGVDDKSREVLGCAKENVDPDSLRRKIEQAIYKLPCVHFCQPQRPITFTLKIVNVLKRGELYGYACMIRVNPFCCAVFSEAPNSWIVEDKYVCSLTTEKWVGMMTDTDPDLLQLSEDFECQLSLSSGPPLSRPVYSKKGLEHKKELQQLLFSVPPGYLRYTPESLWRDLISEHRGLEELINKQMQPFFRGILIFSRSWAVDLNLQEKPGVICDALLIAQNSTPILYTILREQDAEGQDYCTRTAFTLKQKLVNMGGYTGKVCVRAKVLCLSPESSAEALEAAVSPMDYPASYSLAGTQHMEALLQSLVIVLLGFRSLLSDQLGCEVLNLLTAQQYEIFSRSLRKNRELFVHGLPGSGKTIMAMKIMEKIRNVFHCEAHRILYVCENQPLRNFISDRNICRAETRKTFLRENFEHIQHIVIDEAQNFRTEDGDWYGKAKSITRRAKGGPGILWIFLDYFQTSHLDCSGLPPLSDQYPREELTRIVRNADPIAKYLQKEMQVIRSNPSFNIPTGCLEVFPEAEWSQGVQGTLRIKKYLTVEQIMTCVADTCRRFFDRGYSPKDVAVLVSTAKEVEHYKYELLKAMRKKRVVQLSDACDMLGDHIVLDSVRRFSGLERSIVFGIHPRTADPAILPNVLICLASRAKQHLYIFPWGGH
Briefly: BLI; steady state; kdis 4.8e-4 /s; BLI: PBS, 0.02% P20, 0.1% BSA, 25 C; EMSA: 25 mM HEPES pH 7.5, 50 mM NaCl, 8% glycerol, 2 mM MgCl2, 1 mM DTT, 4 C, 50 nM ssDNA; cryo-EM: RNA in 40 mM Tris-HCl pH 8.0, 20 mM KCl, 4 mM MgCl2, 2 mM DTT, protein:RNA 1:1.2, 4 C overnight. As to conditions: protein: recombinant; tags: Strep-II-SUMO (N-term); chain copies: 2.

On to GCAUCAGCUACCUAAAGUUCAGGUAGCUGAUG (structured_RNA) [short hairpin RNA (hRNA)], for which the binding result in the series with SLFN14mut is on record as “binds”.

B1: human SLFN14, wild type (strep-strep-SUMO tagged) (enzyme, UniProt P0C7P3 1-912, looked up)
chain: T1 sequence with A211E, S365C, S775C, S808C
notes: human Schlafen 14 (SLFN14), Gene ID 342618, wild type, codon-optimised gene; also called WT-SLFN14; Schlafen 14; source: HEK293F, transiently transfected, purified (Strep-Tactin, SEC); not shown: strep-strep, N-terminal, kept; SUMO, N-terminal, kept
By stoichiometry N is commonly meant a count of units in the complex or per binding partner. Turning to B1, in series [1], the “stoichiometry N” value came out at 2.

B2: SLFN14 E211A-C365S-C775S-C808S (SLFN14^mut) (enzyme, human, UniProt P0C7P3 1-912, looked up)
chain: T1 sequence
notes: human Schlafen 14 (SLFN14), Gene ID 342618, full length, with four mutations introduced for cryo-EM; No tag cleavage is described in the purification; also called apo SLFN14; SLFN14 apoenzyme; source: Sf21 (baculovirus, pFastBac1), purified (Ni-NTA, heparin, SEC)
Turning to B2, in series [2], the binding result was “binds”.
One may read the Kd as the constant that tells how readily two partners part at equilibrium. On to AATTGGTCGTAGCAAGCTCTAGCACCGCTTAAACGCACGTACGCGCTGTC (ssDNA) [50-nt ssDNA (BLI)], for which the results for the Kd in the series with SLFN14 (WT) and in the series with SLFN11 (WT) were 9 nM and 37 nM, respectively.
